These are literature values, as cited in paper PMC4857727.

Data set [1] addresses Syndecan peptide (Homo sapiens) (UniProt P31431).
Data set [2] has as its target IL5R-alpha peptide (Homo sapiens) (UniProt Q01344).
Sequence of UniProt Q01344 (Q01344 21-420): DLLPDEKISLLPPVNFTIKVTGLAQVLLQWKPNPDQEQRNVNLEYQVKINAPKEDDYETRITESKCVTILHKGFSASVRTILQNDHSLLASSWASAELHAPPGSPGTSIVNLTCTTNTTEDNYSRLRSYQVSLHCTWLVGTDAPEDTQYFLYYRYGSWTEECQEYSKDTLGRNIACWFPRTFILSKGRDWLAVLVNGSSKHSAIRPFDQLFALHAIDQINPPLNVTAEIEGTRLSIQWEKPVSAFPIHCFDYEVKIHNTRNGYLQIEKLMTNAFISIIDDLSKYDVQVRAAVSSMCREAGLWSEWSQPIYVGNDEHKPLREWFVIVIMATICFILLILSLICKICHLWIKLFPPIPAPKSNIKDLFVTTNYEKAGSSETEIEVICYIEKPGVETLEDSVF

Sequence of UniProt P31431 (P31431 19-198): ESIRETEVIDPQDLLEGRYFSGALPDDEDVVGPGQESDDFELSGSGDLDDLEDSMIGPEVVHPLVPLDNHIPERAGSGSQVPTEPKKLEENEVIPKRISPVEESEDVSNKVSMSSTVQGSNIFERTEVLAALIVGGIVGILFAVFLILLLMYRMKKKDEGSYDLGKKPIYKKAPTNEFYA

Consider Syntenin PDZ2 (from UniProt O00560), for which the Kd (commonly the free concentration of one partner at which half of the binding sites on the other are occupied at equilibrium, for simple one-to-one binding) in data set [1] was 2.9 µM; in data set [2] it was 43.8 µM.
